From US20100015170A1 come the findings set out here.

Assay [1] deals with human Toll-like receptor 5 (human) (UniProt O60602). Put plainly: cell-based or functional assay.
In assay [2] the target is mouse Toll-like receptor 5 (mouse) (UniProt Q9JLF7). Briefly: cell-based or functional assay.

A value given as a limit tells only on which side of the number the result lay.

UniProt O60602, sequence (O60602 21-858): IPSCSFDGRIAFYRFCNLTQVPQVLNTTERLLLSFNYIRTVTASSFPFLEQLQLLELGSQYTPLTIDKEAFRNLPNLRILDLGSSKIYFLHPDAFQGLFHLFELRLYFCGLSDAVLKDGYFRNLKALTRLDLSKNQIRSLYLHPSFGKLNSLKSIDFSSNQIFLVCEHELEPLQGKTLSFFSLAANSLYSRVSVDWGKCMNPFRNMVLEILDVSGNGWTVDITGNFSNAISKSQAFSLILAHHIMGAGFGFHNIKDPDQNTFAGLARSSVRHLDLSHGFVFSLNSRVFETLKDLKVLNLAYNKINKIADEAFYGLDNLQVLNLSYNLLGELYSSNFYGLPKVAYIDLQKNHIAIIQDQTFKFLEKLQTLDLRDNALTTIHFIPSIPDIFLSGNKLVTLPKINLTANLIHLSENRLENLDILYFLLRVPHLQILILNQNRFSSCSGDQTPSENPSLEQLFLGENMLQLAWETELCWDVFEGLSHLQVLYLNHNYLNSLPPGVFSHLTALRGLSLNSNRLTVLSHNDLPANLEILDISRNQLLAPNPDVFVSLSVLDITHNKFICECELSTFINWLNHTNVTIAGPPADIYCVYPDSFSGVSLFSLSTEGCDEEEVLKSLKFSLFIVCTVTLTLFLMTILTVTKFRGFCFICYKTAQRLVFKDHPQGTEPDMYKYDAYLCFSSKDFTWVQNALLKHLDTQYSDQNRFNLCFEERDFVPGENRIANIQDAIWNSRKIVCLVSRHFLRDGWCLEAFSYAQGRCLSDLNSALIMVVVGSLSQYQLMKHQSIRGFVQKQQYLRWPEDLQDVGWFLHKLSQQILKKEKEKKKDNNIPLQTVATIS
UniProt Q9JLF7, sequence (Q9JLF7 27-859): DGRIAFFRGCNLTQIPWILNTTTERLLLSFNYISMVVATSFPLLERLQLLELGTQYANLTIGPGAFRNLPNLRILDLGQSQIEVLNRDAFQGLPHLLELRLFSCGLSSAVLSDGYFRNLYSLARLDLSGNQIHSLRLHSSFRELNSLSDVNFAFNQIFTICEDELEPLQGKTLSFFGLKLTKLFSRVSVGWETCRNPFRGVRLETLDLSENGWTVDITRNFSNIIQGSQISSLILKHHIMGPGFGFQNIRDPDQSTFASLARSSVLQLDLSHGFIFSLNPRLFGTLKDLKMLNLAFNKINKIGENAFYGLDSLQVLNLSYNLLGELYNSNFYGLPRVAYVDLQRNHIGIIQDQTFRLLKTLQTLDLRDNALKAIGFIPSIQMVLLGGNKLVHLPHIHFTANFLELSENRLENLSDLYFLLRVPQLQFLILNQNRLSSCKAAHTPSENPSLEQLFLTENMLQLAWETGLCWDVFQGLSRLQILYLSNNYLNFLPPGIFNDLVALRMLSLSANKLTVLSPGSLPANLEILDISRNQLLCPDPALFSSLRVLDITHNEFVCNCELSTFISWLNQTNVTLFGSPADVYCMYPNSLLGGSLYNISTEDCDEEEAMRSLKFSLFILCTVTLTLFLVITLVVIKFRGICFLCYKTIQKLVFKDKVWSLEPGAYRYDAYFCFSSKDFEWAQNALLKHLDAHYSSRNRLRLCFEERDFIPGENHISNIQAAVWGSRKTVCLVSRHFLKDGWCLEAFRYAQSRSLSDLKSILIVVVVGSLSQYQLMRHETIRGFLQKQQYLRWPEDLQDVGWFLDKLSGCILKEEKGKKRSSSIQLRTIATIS

In assay [1], “recombinant mutant flagellin FliC L88A (from UniProt P72151 2-488) (ligand)” yielded a TLR5-mediated NF-κB activation (luciferase, HEK293 cells with human TLR5) (fold lower than FliC WT) of over 100. Besides, in assay [2], the TLR5-mediated NF-κB activation (luciferase, HEK293 cells with mouse TLR5) (fold lower than FliC WT) was over 100.

In assay [1], “recombinant mutant flagellin FliC R90A (from UniProt P72151 2-488) (ligand)” returned a TLR5-mediated NF-κB activation (luciferase, HEK293 cells with human TLR5) (fold lower than FliC WT) of over 100. In assay [2], this substance yielded a TLR5-mediated NF-κB activation (luciferase, HEK293 cells with mouse TLR5) (fold lower than FliC WT) of over 100.
